From a protein production outcome set (Wang et al. 2014)

Assay: label from the status in PepcDB records
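Further: failed if final PepcDB status was selected cloned or expressed and not failed if soluble or beyond.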

## MAGETPEQGEGRIISGRYRLLRTLGAGGMGRVWLAYDAELACEVAVKEIALPDLPIDASEPVQRIARARSEARNAARLRGHPHVATVHDVVVHEGLPWIVMEHVPDAIDLQAVVRRSGPLTPARTARIGVAVLDALTAGHRIGILHRDVKPANILLAPDASGDPYARVLLTDYGIALQPESREPRLTATAGILGTPGYLAPERARGEPPTPAADLFSLGATLYATVEGRGPFDRHGEYATLTALLGEEPTPPVRAGELGAVLHGLLIKDPVRRLAPEAVARGLEAVARAAPGEGFGPPPGWGSAPSVGQGFGPPPQGFGPPPDGFGPPSGTPSVSPPSAEGATTAPGAPGAPQVSAPGTPQTPGAPRTPHTPHTPQTPAGGPGTPPGSPSAYNPWRPTPPSGPYDPGNPYASSPSSPYAGTGAPAAYEGGPAYFPPRPSPRRKSAAALVALVVAAALVVTGGIWAALSLTGGPTGDGGGTTGQRAKKSPPVSGPQSTKPAGPVLPYGEQVGLTEPLQAGDCVRAVWSGAAFKSVPNLGVVDCADDWPDGQVVAVDTATDYADARDRGARRCAGQSQATADALPDAGVYAVAPTKEGFTAASGGTACLVLGRHAAIGGEVGRFRDTGTDLWVGQMSIGDCWIYKEEKDSYKAPLSDCAQPHTDQVIGAVSAPKNMDYKKGVDNGNKLCGNKFESSWAPGPARQVFGWVADKEDWNDGFDKVVCTVRRSDGAETSGKISAPGAV
  protein production: failed

## MSLGVLRYTLRARGHPNVTAGHRTTFEVTVDPEIGETADCIIGVSSSDSISTLPDEMKRAIARESSLVRVILRTENGYDEIRGYGHPELTLDHPTDIVCRKSDYICSRTLMIRADKAAFDLDENLVRDLRKGRELKVEIIVEYEGHHHHHH
  protein production: not failed

## MPQPDPQGFRRSLFLYRRAGMAEIGDFAVKFMIGIRSKRMITLPSLNNLPSKWDEIRHCLETRVFECGVMPYPNLTECEAGQFERDFWDNIGCAPEEYVRIRRAIRLLELRYPDSLNELVCAAIATPLGEMLAVFGVKGLCLLEFVGQKYLEQEIAAVQKALRGRFVFREDGRMQFLRQELDLYFKGHLKTFATPLEQIGTEFQKQAWDALLAIPYGETRSYKEQAQRLGNPKAVRAVAAANGQNKVSVMIPCHRVIGSDGKLTGYAGGLNRKQFLLALERGEVQTALF
  protein production: failed

## MRAFIAIDVSESVRDALVRAQDYIGSKEAKIKFVERENFHITLKFLGEITEEQAEEIKKILEKIAKKYKKHEVNVRGIGVFPNPNYVRVIWAGVENDEIIKKIAKEIDDELAKLGFKKEGNFVAHITLGRVKFVKDKLGLAMKLKELANEDFGSFIVEAIELKKSTLTPKGPIYETLARFELSE
  protein production: not failed

## MEGESVKLSSQTLIQAGDDEKNQRTITVNPAHMGKAFKVMNELRSKQLLCDVMIVAEDVEIEAHRVVLAACSPYFCAMFTGDMSESKAKKIEIKDVDGQTLSKLIDYIYTAEIEVTEENVQVLLPAASLLQLMDVRQNCCDFLQSQLHPTNCLGIRAFADVHTCTDLLQQANAYAEQHFPEVMLGEEFLSLSLDQVCSLISSDKLTVSSEEKVFEAVISWINYEKETRLEHMAKLMEHVRLPLLPRDYLVQTVEEEALIKNNNTCKDFLIEAMKYHLLPLDQRLLIKNPRTKPRTPVSLPK
  protein production: not failed

## MFDIGVNLTSSQFAKDRDDVVACAFDAGVNGLLITGTNLRESQQAQKLARQYSSCWSTAGVHPHDSSQWQAATEEAIIELAAQPEVVAIGECGLDFNRNFSTPEEQERAFVAQLRIAADLNMPVFMHCRDAHERFMTLLEPWLDKLPGAVLHCFTGTREEMQACVAHGIYIGITGWVCDERRGLELRELLPLIPAEKLLIETDAPYLLPRDLTPKPSSRRNEPAHLPHILQRIAHWRGEDAAWLAATTDANVKTLFGIAF
  protein production: not failed

## MKFVKIALIIAVIALVLFAAKQTGVLEIITDIKSLQEWIAGFGAWGYIVFVAAFVFACVFLLPGSAFTIVAGIVFGPIKGGVLALFSATLGAVVAFIVARFLLRNTIMKKFGDNPIFKKIDDGVAKNGTSFLILTRLVPVFPFSLQNYAYGLTGLNLSTYALVSLITMAPGAFIFAYMAGDIATNGVSAMLLVKFAVAGLILFGMSLIPKYIAKKKGINMEELAK
  protein production: not failed

## MTQTVDIENTDNVLSRRDSNAETQQMLRQRFETQPDLMPAQLASELGIAELEVVTALPQAQRVFLPLAHMDELLQSLPEWGSLTTIVMLSGSVFEFKGDFPQGKFAHGYYNLYSKGDGLHGHLKLDGMRAIALISRPFRGSESHSINFFGPQGEVVFKVYLGRDKQRVLFPDQVRRFKALAATFAD
  protein production: failed

## MVEAIIFDMDGVLFDTEKYYYDRRASFLGQKGISIDHLPPSFFIGGNTKQVWENILRDEYDKWDVSTLQEEYNTYKQNNPLPYKELIFPDVLKVLNEVKSQGLNIGLASSSVKADIFRALEENRLQAFFDIVLSGEEFKESKPNPEIYLTALKQLNVQASRALIIEDSEKGIAAGVAADVEVWAIRDNLFGMDQSAAKGLLDSLTDVLDLIK
  protein production: not failed

## MSRSPEQDSDWMTGVGDSAAGESARVARLVRVAQHIEMHADEALTLSSLAKVAALSPSRLQKQFKAAFGVSPKAYQDAVRMRRFKQSLKDGSKVTDAIFASGFGSVSRVYGEANRSIGMPPRAYRAGGAGEVIVYAGRTTALGLMMMAATERGVCFVEFGDDEASLVGRLRSEFPKAELTASPARNAPELDAWMEALDQHISAGAPRPDLPLDMRGTAFQVKVWQFLLSIREGDVLSYSEVAARIDKPRAVRAVASACGKNRIGVLIPCHRVLRGDGGLGGYRWGLERKRALLEAERRSVTRE
  protein production: failed

## MSDFEKQLWKAADKLRKNIDAAEYKHIVLGLIFLRYISDAFEELYEKLQQGEGEYAGADPEDRDEYKAENVFFVPAISRWPYLQSEAKKPDIGKSVDNAMDAIEKENPLLRGVLPKVFARGNLDPTNLGGLIDLVSNVALGDAKSRSADVLGHVFEYFLGEFALAEGKKGGQFYTPRSVVELLVEMLEPYNGRVFDPCCGSGGMFVQSEKFVADHQGKINDISIYGQESNQTTWRLAKMNLAIRSIDSSQVKWNNEGSFLNDVHKDLKADYVIANPPFNDSDWSGDLLRKDGRWKYGVPPAGNANYAWIQHFLYHLGPSGQAGFVLAKGSLTSKSSGEGDIRKELVEARLVDCIVNLPPKLFLNTQIPASLWFLSRNKANGKHRNRTDEILFIDARNMGHLINRRTREFSPEDIQQIAGTYHKWRNPEGNYEDVKGFCNSAPIERVRELGYVLTPGRYVGLPDDEDNFDFNERFSALKAEFEEQLKEEERLNLRIAENLKKVKPA
  protein production: failed

## MKITVIVPTYRRTKDLTRCLESLEKQSRPADEVLVVVRDTDVETWQFLETIAPHSLPLHTTTVRVPGVVAAMNAGLDIAQGDIIAFTDDDAAPHSNWLAQIETHFLAHEQIAGVGGRDWVYHGDRLEDGTCPVVGQVHWFGRVIGNHHIGIGKPREVDVLKGVNMSFRRSAVHGLRFDQRMLGTGAQVHFEVAFCLALKRAGWKLIYDPQIGVNHYPAQRFDEDQRQSFNHLAVTNAVHNETLALLEHLSPTQQLTFLLWATLVGTRDSMGLIQFLRFLPSDRALAGQKLLAAWYGRWRGWRTWQSSIRFAQIKN
  protein production: failed

## MASRFQEASLVTSPSYPNAVAWSSENLIAVAAGHLVIIINPALPTGPRGLITISDAELYQIGRVRSQDLLTGGLLPSSLKRERSPCVRSLSWSEIGMSPNHGCLLAVCTAEGRVKLYRPPYSDFCAEWIEIVDISKMLYENLSSMNFGESKNPSTSLSKDQVVEHDHEEDERISSLKARKRRKTSANNINLHEKNYTDRASCSKQDSKAEHNVLEIEVYKQASNGQDRRSLPKALKKCSQEISPQTYVSREALLSSHSVAWSSLLRFSSESSCGNMLRFSLLAIGSKSGSVSIWKVHAPECYHIERSNVSPMVELTAIVQTHSSWVSTMSWGIFGCDSSNPQVVLVTGSCDGSVKIWMSNKEDLQNSVEVYKSSFFLLKEVVAVNPVQVSTLSFVVSNHYNAMHLAIGKGSGSFEVWKCEISTRKFEQIVSTNAHNQVVTGLAWSYDGRCLYSCSQDNYVRSWILCENAISEVPIPANTPGLSSTTDLPDDFLSCLGVALSPGNLAVALVRNFNVELLNPMYQARSQKAAVEFLWNGAQQSGESEDSTETVTEAILGFSKNEFANWESNILWSLKEFNYLNKPLVLWDMVAAMLAFKQSMPEFVELVLTKWLSVSYLGFHDDISMEDLVPKITKRFSDVPSRLLHILNVISRRVMLSELKTEEINRKLQGQRTNDEGEIDLWLKLLQESERELRERLVGLSFSAYLLAESSQGTISPPSWNWRPAGLALLQQWVEINRDIVHSQLETLSLEVKSSRTRSSNSTETALEEEKCPYCAAPVNFHSAEEAFCESSHQKKKKSKDKERCDESHKLERCCVSMQVCPPTPLWFCKCCNRMTLELAPETLFALPSFPSDLKSLPKSSFSKVASKPFCLFCGVLLQRKQPEFLLSASPV
  protein production: failed
